Where a chain is given by its changes, count along the chain named. Read-outs that look alike come from different tables or passages of the source.
B1: WT 1-1 (antibody, V domains shown)
VH: QVQLQQPGAELVKPGASVRLSCQTSVDTFTTYYLYWVKQRPGEGLEWIGGINPTSNPVFDEKFKSKATLTVDTSSSTAYMQLSSLTSVDSAVYYCTRSIVRRGYYPDYWGQGTALTVSS
VL: DIQMTQTTSSLSASLGDRVTISCRGSQDINNYVNWYQQKPDGTIKLLIYFTSRLQSGVPSRFSGSGSGTDYSLTIANLEQEDIATYFCQQDDTIPITWGAGTKVELKR
notes: WT background; CDRs built
B2: Mutation 1-13 (antibody, V domains shown)
VH: B1 VH with L34I, D60N, I99V, P106F
VL: B1 VL with G25A, F50Y, Q55H, I94V, W98F
notes: Mutation 1 background; CDRs built
B3: Mutation 1-11 (antibody, V domains shown)
VH: QVQLQQPGAELVKPGASVRLSCQTSVNTFTTYYIYWVKQRPGEGLEWIGGLNPTSGGPVFNEKFKSKATLTVDTSSSTAYMQLSSLTSVDSAVYYCTRSIIRRGYYFDYWGQGTALTVSS
VL: B1 VL with G25A, V33I, F50Y, V58L, I96L, W98F
notes: as for B2
B4: Mutation 1-59 (antibody, V domains shown)
VH: B1 VH with D27N, T30S, L34I, I51L, D60N, I99V, V100I, P106F
VL: B1 VL with G25A, V33I, F50Y, V58L, I94V, I96L, W98F
notes: as for B2
B5: Mutation 1-3 (antibody, V domains shown)
VH: B3 VH with N27E, L51V, I100V, I101L
VL: B1 VL with G25A, V33L, F50Y, Q55H, V58I, I94V, I96V, W98F
notes: as for B2
B6: Mutation 1-15 (antibody, V domains shown)
VH: B3 VH with N27E, L51V, I100L, I101L
VL: B1 VL with G25A, V33L, F50Y, Q55N, V58I, I94L, I96V, W98F
notes: as for B2
B7: Mutation 1-8 (antibody, V domains shown)
VH: B1 VH with D27E, T30S, L34I, I51L, D60N, I99L, V100I, P106F
VL: B1 VL with G25A, N30Q, V33L, F50Y, Q55N, V58L, I94L, I96L, W98F
notes: as for B2
B8: WT 1-4 (antibody, V domains shown)
VH: B3 VH with T30S, I34L, L51I, N61D, I100V, I101V, F107P
VL: B1 VL with N30Q, V33I, Q55H, I94V
notes: WT background; CDRs built
B9: Mutation 1-14 (antibody, V domains shown)
VH: B1 VH with D27E, T30S, L34I, I51L, D60N, I99V, V100I, P106F
VL: B1 VL with G25A, N30Q, V33L, F50Y, Q55H, V58L, I94V, I96L, W98F
notes: as for B2
B10: Mutation 1-7 (antibody, V domains shown)
VH: B1 VH with L34I, D60N, I99L, P106F
VL: B1 VL with G25A, F50Y, Q55N, I94L, W98F
notes: as for B2
B11: Mutation 1-9 (antibody, V domains shown)
VH: B3 VH with N27E, L51V, I101L
VL: B1 VL with G25A, V33L, F50Y, V58I, I96V, W98F
notes: as for B2
B12: WT 1-7 (antibody, V domains shown)
VH: B1 VH with I99L
VL: B1 VL with Q55N, I94L
notes: WT background; CDRs built
B13: WT 1-5 (antibody, V domains shown)
VH: B3 VH with I34L, N61D, I100V, F107P
VL: B1 VL with V33I, Q55H, V58L, I94V, I96L
notes: WT background; CDRs built
B14: WT 1-3 (antibody, V domains shown)
VH: B3 VH with N27E, I34L, L51V, N61D, I100V, I101L, F107P
VL: B1 VL with V33L, Q55H, V58I, I94V, I96V
notes: WT background; CDRs built
B15: WT 1-9 (antibody, V domains shown)
VH: B3 VH with N27E, I34L, L51V, N61D, I101L, F107P
VL: B1 VL with V33L, V58I, I96V
notes: WT background; CDRs built
B16: WT 1-8 (antibody, V domains shown)
VH: B1 VH with D27E, T30S, I51L, I99L, V100I
VL: B1 VL with N30Q, V33L, Q55N, V58L, I94L, I96L
notes: WT background; CDRs built
B17: WT 1-6 (antibody, V domains shown)
VH: B1 VH with T30S, I51V, I99L, V100L
VL: B1 VL with N30Q, Q55N, V58I, I94L, I96V
notes: WT background; CDRs built
B18: WT 1-2 (antibody, V domains shown)
VH: B1 VH with D27E, T30S, I51L, V100I
VL: B1 VL with N30Q, V33L, V58L, I96L
notes: WT background; CDRs built

How the values were obtained:
Taq DNA polymerase [1] = biological target: T1, Taq DNA polymerase (Thermus aquaticus, UniProt P19821 1-832); test: AMC sensor, antibody immobilised
T1 construct: also called Taq enzyme; Taq DNA enzyme
T1 sequence (P19821 whole entry): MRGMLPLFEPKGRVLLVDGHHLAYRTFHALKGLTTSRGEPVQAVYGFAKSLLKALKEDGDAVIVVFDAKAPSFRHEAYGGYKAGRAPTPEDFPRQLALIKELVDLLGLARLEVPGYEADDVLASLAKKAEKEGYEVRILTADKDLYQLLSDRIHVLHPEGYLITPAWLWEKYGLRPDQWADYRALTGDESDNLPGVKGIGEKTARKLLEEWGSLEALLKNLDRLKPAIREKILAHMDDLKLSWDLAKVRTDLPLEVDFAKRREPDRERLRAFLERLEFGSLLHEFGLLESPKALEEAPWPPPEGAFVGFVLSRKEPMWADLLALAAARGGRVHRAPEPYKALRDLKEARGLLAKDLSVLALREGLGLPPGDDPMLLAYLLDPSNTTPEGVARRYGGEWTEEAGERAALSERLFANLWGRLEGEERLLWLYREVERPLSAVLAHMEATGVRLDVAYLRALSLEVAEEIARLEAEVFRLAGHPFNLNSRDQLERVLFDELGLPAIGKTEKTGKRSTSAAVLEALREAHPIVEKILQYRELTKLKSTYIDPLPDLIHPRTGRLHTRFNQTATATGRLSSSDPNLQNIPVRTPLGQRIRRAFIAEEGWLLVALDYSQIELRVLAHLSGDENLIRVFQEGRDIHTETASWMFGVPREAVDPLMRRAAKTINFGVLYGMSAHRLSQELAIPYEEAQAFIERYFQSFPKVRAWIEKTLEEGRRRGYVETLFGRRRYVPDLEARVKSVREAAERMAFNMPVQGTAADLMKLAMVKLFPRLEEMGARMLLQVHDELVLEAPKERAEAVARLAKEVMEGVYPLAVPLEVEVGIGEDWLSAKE

Taq DNA polymerase [2] = biological target: T1, Taq DNA polymerase; test: AMC sensor, antibody immobilised; remark: listed apart in the source

Binder	Kd (Taq DNA polymerase [1]) [nM]	koff (Taq DNA polymerase [1]) [s⁻¹]	kon (Taq DNA polymerase [1]) [M⁻¹ s⁻¹]	Kd (Taq DNA polymerase [2]) [nM]	koff (Taq DNA polymerase [2]) [s⁻¹]	kon (Taq DNA polymerase [2]) [M⁻¹ s⁻¹]
B1	4.65	0.000273	58800			
B2				0.407	2.52e-05	61700
B3				0.613	3.06e-05	50000
B4				0.0507	3.06e-06	60400
B5				0.367	1.54e-05	42000
B6				0.12	5.72e-06	47600
B7				0.0343	1.64e-06	47600
B8	4.1	0.000362	88400			
B9				0.229	1.92e-05	84100
B10				0.599	2.45e-05	41000
B11				0.926	7.28e-05	78600
B12	3.42	0.000296	86700			
B13	5.13	0.000314	61200			
B14	2.3	0.00011	48000			
B15	8.57	0.000433	50500			
B16	3.02	9.85e-05	32600			
B17	6.65	0.000506	76100			
B18	3.41	0.000166	48500			
